Key:
[1] = biological target: pre-S region E. coli recombinant protein (hepatitis B virus); assay: chemiluminescent ELISA, serially diluted antigen coated, antibody 1:2000
[2] = biological target: large surface protein of hepatitis B virus (LHBS), full-length (hepatitis B virus); assay: chemiluminescent sandwich ELISA on pooled HBsAg(+) sera; pre-S1 antibody coated, pre-S2 antibody detecting (platform 1)
[3] = biological target: large surface protein of hepatitis B virus (LHBS), full-length (hepatitis B virus); assay: chemiluminescent sandwich ELISA on pooled HBsAg(+) sera; pre-S1 antibody coated, HBS antibody detecting (platform 2)

Chain of pre-S region E. coli recombinant protein (hepatitis B virus) (P03141 2-174): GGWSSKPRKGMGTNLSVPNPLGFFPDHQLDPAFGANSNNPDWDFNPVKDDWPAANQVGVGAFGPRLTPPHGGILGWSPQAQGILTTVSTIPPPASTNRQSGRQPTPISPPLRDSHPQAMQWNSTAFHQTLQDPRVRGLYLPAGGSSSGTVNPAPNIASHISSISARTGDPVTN

B1: pre-S2 monoclonal antibody (antibody, V domains shown)
VH: QVQLQQPGTELVKPGTSVKLSCKASGYTFTSYWMHWVKLRPGQGFEWIGEINPSNGITNYNEKFKRKATLTVDKSSTTAYMQLSSLTFEDSAVYYCTIGYDYGSNYEAMDFWGQGTSVTVSS
VL: DIVMTQAAFSNPVTLGTSASMSCRSSKSLLHSNGITYLYWYLQKPGQSPQLLIYQMSNLASGVPDRFSSGGSGTDFTLRISRVEAEDVGVYYCAQNLELPWTFGGGTKLEIK
B1 showed a limit of linearity (LOL) [1] of 1.56 ng/mL, a limit of quantification (LOQ) [1] of 0.04 ng/mL and a limit of quantification (LOQ) [2] of 13.5 ng/mL.

B2: HBS monoclonal antibody (antibody, V domains shown)
VH: VQLQQSGPELVKPGASVKMSCKASGYTLTDYVIGWVKQRTGQGLEWIGEVYPGSVYTSYNEKFKGKATLTADKSSNTAYMQLSGLTSDDSAVYFCAYDGYSPFDYWGQGTTLTVSS
VL: NIVMTQSPKSMSMSVGERVTLTCKASENVGTYVSWFQQKPGQSPKLLIYGASNRYIGVPDRFTGSGSATDFTLTISSVQAEDLAEYHCGQSYNYPHTFGGGTKLVIKR
For B2, the limit of quantification (LOQ) [3] was 1.7 ng/mL.
